This assay deals with PfUDN, N-terminal fragment of Plasmodium falciparum UvrD helicase (P. falciparum 3D7).

“PfMLH (P. falciparum MutL homologue) (natural protein)” gave a stimulation of the unwinding (helicase) activity of PfUDN (10 nM) on the 3′ to 5′ direction-specific substrate 3B by PfMLH (8 and 16 nM) pre-incubated with the substrate, against PfUDN alone of 22 to 36%.

(Values after paper PMC3503981.)
